Source: ChEMBL document CHEMBL1143427, “Interactions of ceftobiprole with beta-lactamases from molecular classes A to D” (Antimicrob Agents Chemother, 2007)

What was measured:
[1] = substrate: CC1(C)S[C@@H]2[C@H](NC(=O)Cc3ccccc3)C(=O)N2[C@H]1C(=O)O; experiment: (§1) Ratio of Kcat to Km of Klebsiella pneumoniae SHV1 assessed as drug hydrolysis by spectrophotometry
[2] = substrate: CO/N=C(\C(=O)N[C@@H]1C(=O)N2C(C(=O)[O-])=C(C[N+]3(C)CCCC3)CS[C@H]12)c1csc(N)n1; experiment: as §1
[3] = substrate: Nc1nc(/C(=N/O)C(=O)N[C@@H]2C(=O)N3C(C(=O)O)=C(/C=C4\CCN([C@@H]5CCNC5)C4=O)CS[C@H]23)ns1; experiment: as §1
[4] = substrate: O=C(Cc1cccs1)N[C@@H]1C(=O)N2C(C(=O)[O-])=C(C[n+]3ccccc3)CS[C@H]12; experiment: as §1
[5] = substrate: CC1(C)S[C@@H]2[C@H](NC(=O)Cc3ccccc3)C(=O)N2[C@H]1C(=O)O; experiment: (§2) Activity of Klebsiella pneumoniae SHV1 assessed as drug hydrolysis by spectrophotometry
[6] = substrate: CO/N=C(\C(=O)N[C@@H]1C(=O)N2C(C(=O)[O-])=C(C[N+]3(C)CCCC3)CS[C@H]12)c1csc(N)n1; experiment: as §2
[7] = substrate: Nc1nc(/C(=N/O)C(=O)N[C@@H]2C(=O)N3C(C(=O)O)=C(/C=C4\CCN([C@@H]5CCNC5)C4=O)CS[C@H]23)ns1; experiment: as §2
[8] = substrate: O=C(Cc1cccs1)N[C@@H]1C(=O)N2C(C(=O)[O-])=C(C[n+]3ccccc3)CS[C@H]12; experiment: as §2
[9] = substrate: CC(C)(O/N=C(\C(=O)N[C@@H]1C(=O)N2C(C(=O)[O-])=C(C[n+]3ccccc3)CS[C@H]12)c1csc(N)n1)C(=O)O; experiment: (§3) Ratio of Kcat to Km of Staphylococcus aureus betalactamase PC1 assessed as drug hydrolysis by spectrophotometry
[10] = substrate: CC1(C)S[C@@H]2[C@H](NC(=O)Cc3ccccc3)C(=O)N2[C@H]1C(=O)O; experiment: as §3
[11] = substrate: CO/N=C(\C(=O)N[C@@H]1C(=O)N2C(C(=O)[O-])=C(C[N+]3(C)CCCC3)CS[C@H]12)c1csc(N)n1; experiment: as §3
[12] = substrate: Nc1nc(/C(=N/O)C(=O)N[C@@H]2C(=O)N3C(C(=O)O)=C(/C=C4\CCN([C@@H]5CCNC5)C4=O)CS[C@H]23)ns1; experiment: as §3
[13] = substrate: O=C(Cc1cccs1)N[C@@H]1C(=O)N2C(C(=O)[O-])=C(C[n+]3ccccc3)CS[C@H]12; experiment: as §3
[14] = substrate: CC(C)(O/N=C(\C(=O)N[C@@H]1C(=O)N2C(C(=O)[O-])=C(C[n+]3ccccc3)CS[C@H]12)c1csc(N)n1)C(=O)O; experiment: (§4) Activity of Staphylococcus aureus betalactamase PC1 assessed as drug hydrolysis by spectrophotometry
[15] = substrate: CC1(C)S[C@@H]2[C@H](NC(=O)Cc3ccccc3)C(=O)N2[C@H]1C(=O)O; experiment: as §4
[16] = substrate: CO/N=C(\C(=O)N[C@@H]1C(=O)N2C(C(=O)[O-])=C(C[N+]3(C)CCCC3)CS[C@H]12)c1csc(N)n1; experiment: as §4
[17] = substrate: Nc1nc(/C(=N/O)C(=O)N[C@@H]2C(=O)N3C(C(=O)O)=C(/C=C4\CCN([C@@H]5CCNC5)C4=O)CS[C@H]23)ns1; experiment: as §4
[18] = substrate: O=C(Cc1cccs1)N[C@@H]1C(=O)N2C(C(=O)[O-])=C(C[n+]3ccccc3)CS[C@H]12; experiment: as §4

B1: Beta-lactamase SHV-1 (Klebsiella pneumoniae), P0AD64 (protein)
chain: MRYIRLCIISLLATLPLAVHASPQPLEQIKLSESQLSGRVGMIEMDLASGRTLTAWRADERFPMMSTFKVVLCGAVLARVDAGDEQLERKIHYRQQDLVDYSPVSEKHLADGMTVGELCAAAITMSDNSAANLLLATVGGPAGLTAFLRQIGDNVTRLDRWETELNEALPGDARDTTTPASMAATLRKLLTSQRLSARSQRQLLQWMVDDRVAGPLIRSVLPAGWFIADKTGAGERGARGIVALLGPNNKAERIVVIYLRDTPASMAERNQQIAGIGAALIEHWQR
- kcat/Km [1]: 8.1e+07 M⁻¹ s⁻¹
- kcat/Km [2]: 25000 M⁻¹ s⁻¹
- kcat/Km [3]: 230000 M⁻¹ s⁻¹
- kcat/Km [4]: 3.1e+06 M⁻¹ s⁻¹
- Km [5]: 16 µM
- kcat [5]: 1300 s⁻¹
- Km [6]: 81 µM
- kcat [6]: 2.1 s⁻¹
- Km [7]: 130 µM
- kcat [7]: 30 s⁻¹
- Km [8]: 160 µM
- kcat [8]: 500 s⁻¹

B2: Beta-lactamase (Staphylococcus aureus), P00807 (protein)
chain: MKKLIFLIVIALVLSACNSNSSHAKELNDLEKKYNAHIGVYALDTKSGKEVKFNSDKRFAYASTSKAINSAILLEQVPYNKLNKKVHINKDDIVAYSPILEKYVGKDITLKALIEASMTYSDNTANNKIIKEIGGIKKVKQRLKELGDKVTNPVRYEIELNYYSPKSKKDTSTPAAFGKTLNKLIANGKLSKENKKFLLDLMLNNKSGDTLIKDGVPKDYKVADKSGQAITYASRNDVAFVYPKGQSEPIVLVIFTNKDNKSDKPNDKLISETAKSVMKEF
- kcat/Km [9]: 12 M⁻¹ s⁻¹
- kcat/Km [10]: 1.9e+07 M⁻¹ s⁻¹
- kcat/Km [11]: 33 M⁻¹ s⁻¹
- kcat/Km [12]: 310 M⁻¹ s⁻¹
- kcat/Km [13]: 1300 M⁻¹ s⁻¹
- Km [14]: 29 µM
- kcat [14]: 0.00035 s⁻¹
- Km [15]: 3.4 µM
- kcat [15]: 65 s⁻¹
- Km [16]: 61 µM
- kcat [16]: 0.002 s⁻¹
- Km [17]: 78 µM
- kcat [17]: 0.024 s⁻¹
- Km [18]: 110 µM
- kcat [18]: 0.14 s⁻¹
